Assay results as given in US20160264650A1 (Regeneron, published 2016).
Numbering of substitutions follows the chain as printed. Like-named read-outs stand apart in the source and are kept apart here.

Key:
[1] = biological target: T1, Clostridium difficile toxin B, soluble full-length (TechLab) (Clostridium difficile, UniProt P18177 2-2366); assay: SPR Biacore T200, 37C, mAb capture
T1 construct: also called tcdB

[2] = biological target: T2, Clostridium difficile toxin A, soluble full-length (TechLab) (Clostridium difficile, UniProt P16154 1-2710); assay: SPR Biacore T200, 37C, mAb capture
T2 construct: also called tcdA

[3] = biological target: T2, Clostridium difficile toxin A, soluble …; assay: SPR Biacore T200, 37C, mAb capture; remark: listed apart in the source
[4] = biological target: T1, Clostridium difficile toxin B, soluble …; assay: cell-based or functional assay

T1 sequence (P18177 2-2366 limits assumed): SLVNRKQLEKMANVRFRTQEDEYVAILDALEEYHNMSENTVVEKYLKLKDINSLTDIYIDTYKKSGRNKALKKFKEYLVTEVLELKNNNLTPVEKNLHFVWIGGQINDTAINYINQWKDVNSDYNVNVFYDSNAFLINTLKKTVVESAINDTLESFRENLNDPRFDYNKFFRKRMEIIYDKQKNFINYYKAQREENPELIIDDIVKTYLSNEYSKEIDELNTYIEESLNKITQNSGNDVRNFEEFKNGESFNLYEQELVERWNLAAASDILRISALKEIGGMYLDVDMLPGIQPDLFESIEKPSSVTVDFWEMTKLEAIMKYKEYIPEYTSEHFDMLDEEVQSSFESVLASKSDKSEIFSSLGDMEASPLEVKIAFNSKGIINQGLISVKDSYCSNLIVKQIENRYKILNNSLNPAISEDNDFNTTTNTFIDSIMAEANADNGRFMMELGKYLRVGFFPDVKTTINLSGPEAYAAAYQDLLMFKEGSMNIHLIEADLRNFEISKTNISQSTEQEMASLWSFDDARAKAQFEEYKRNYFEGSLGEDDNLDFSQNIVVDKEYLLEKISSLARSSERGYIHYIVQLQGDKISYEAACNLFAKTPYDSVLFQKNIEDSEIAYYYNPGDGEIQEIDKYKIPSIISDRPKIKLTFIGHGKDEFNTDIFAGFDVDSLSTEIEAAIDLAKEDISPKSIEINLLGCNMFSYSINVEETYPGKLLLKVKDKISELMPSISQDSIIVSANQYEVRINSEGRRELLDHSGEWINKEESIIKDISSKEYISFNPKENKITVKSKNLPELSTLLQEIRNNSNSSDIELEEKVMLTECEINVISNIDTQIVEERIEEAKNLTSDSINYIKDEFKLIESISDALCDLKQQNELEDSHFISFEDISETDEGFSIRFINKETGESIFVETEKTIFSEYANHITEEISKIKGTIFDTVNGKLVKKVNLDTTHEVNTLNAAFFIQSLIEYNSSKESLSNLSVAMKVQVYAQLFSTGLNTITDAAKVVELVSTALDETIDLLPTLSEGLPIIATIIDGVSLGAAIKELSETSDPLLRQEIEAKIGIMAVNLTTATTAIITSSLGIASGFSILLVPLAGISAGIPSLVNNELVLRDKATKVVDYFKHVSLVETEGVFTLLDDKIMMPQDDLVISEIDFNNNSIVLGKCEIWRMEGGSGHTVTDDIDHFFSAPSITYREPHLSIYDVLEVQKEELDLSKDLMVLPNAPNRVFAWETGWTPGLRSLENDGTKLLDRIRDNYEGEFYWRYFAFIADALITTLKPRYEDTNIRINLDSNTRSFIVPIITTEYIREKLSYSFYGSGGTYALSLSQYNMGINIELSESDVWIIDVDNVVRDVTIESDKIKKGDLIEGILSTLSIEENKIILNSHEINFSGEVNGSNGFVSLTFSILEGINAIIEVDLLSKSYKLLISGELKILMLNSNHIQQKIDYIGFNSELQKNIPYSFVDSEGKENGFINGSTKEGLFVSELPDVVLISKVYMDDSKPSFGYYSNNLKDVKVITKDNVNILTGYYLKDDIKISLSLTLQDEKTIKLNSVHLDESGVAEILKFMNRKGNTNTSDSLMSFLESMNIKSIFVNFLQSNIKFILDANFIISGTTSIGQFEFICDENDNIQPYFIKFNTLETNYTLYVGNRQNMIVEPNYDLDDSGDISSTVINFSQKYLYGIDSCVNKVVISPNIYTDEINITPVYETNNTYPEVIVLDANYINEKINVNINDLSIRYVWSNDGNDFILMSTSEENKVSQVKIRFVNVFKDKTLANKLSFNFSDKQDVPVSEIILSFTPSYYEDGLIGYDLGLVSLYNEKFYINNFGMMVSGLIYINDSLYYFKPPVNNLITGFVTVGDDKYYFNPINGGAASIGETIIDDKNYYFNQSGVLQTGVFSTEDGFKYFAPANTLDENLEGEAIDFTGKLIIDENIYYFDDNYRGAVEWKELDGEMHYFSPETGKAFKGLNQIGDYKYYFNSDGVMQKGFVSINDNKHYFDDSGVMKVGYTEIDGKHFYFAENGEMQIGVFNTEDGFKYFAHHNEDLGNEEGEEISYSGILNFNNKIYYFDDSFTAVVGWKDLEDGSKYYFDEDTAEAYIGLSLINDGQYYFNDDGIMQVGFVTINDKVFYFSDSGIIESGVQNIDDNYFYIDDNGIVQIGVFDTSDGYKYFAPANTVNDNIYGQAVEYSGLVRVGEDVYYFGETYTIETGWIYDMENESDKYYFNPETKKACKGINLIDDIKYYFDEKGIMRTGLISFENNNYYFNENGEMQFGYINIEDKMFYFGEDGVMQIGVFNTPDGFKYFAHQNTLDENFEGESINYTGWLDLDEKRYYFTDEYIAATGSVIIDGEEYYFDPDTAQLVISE

B1: H1H3355P (antibody, V domains shown)
VH: EVQLVESGGGLVQPGRSLRLSCTASGFVFEDYAMHWVRQAPGKGLEWVSGISWNSGRIGYTDSVKGRFTVSRDNAKNSLYLQMNSLTTEDTALYYCAKDKSPSKWNLLGMDVWGQGTTVTVSS
VL: AIQMTQSPSSLSASVGDRVTITCRASQDIRNDLGWFQQKPGRAPNLLIFGASSLQSGVPSRFSGSGSGTDFTLTISGLQPEDFSTYYCLQDYTYPFTFGPGTKVDIKR
[1]
  binding result: no binding (tested: toxin at 5 to 10 nM)

B2: H1H3067N (antibody, V domains shown)
VH: QIQLVESGGGVVQPGRSLRLSCVASGFTLSGHGMHWVRQAPGKGLEWVAFISFDGGHQDYTDAAEGRFTISRDNSKNTLYLEMVSLRPADTAIYYCVKGSDSSRGFGYWGRGILVTVSS
VL: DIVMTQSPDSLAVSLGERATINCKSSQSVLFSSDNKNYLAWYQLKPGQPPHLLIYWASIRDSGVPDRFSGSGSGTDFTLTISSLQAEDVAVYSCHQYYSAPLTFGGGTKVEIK
[2]
  Kd: 0.24 nM
  T½: 5.58 h
  koff: 3.45e-05 s⁻¹
  kon: 144000 M⁻¹ s⁻¹

B3: H1H3134N (antibody, V domains shown)
VH: QVQLVESGGDVVQPGRSLRLSCAASGFTFSGHGMHWVRQAPGKGLEWVALILYDGSSEDYTDSVKGRFTVSRDNSKNTLYLQMNSLRAEDTAVYYCARGSILNRPFDYWGQGTLVTVSS
VL: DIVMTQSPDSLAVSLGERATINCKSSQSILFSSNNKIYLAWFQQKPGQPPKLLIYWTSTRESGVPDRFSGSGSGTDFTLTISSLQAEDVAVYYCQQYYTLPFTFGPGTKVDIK
[2]
  Kd: 0.0278 nM
  T½: 68.3 h
  koff: 2.82e-06 s⁻¹
  kon: 102000 M⁻¹ s⁻¹

B4: H1H3350P (antibody, V domains shown)
VH: QVQLVESGGGLVKPGGSLTLSCVASGFTFTDYYISWIRQAPGKGLEWISYIGTGGAAKYYADSVKGRFTVSRDNAKNSLYLLMNNLRAEDTAVYYCARDLGIFDLWGQGTLVTVSS
VL: EIVMTQSPATLSVSPGERATLSCRASQSVSSSLAWYHQKPGQAPRLLIHGVSTRATGIPARFSGTGSGTEFTLTISSLQSEDFAVYYCQQYHNWPPYTFGQGTKLEIKR
[3]
  Kd: 0.0101 nM
  T½: 47.6 h
  koff: 4.05e-06 s⁻¹
  kon: 402000 M⁻¹ s⁻¹

B5: H1H3117N (antibody, V domains shown)
VH: EVQLLESGGGLAQPGGSLRLSCAASGFNFGTHDMSWVRQAPGKGLEWVSGLTSTGGSASSADSVKGRFTISRDNSKNILYLQMNSLRAEDTAVYYCAKTFNWNSYFDYWGQGTLVTVSS
VL: EIVLTQSPGTLSLSPGERATLSCRASQSISTYYLAWYQQKPDQPPRLLIYGTSSRATGIPDRFSGSGSGTDFTLTISRLDPEDFAVYYCQQYGNSLYTFGQGTKLEIK
[3]
  Kd: 0.0793 nM
  T½: 5.53 h
  koff: 3.84e-05 s⁻¹
  kon: 438000 M⁻¹ s⁻¹

B6: H1H3394P (antibody, V domains shown)
VH: QVQLVQSGAEVQKPGASVKVSCKASGYTFTDYYIHWVRQAPGQGLEWMGWINPKTGGTNYAPKFQGRVTMTRDSSIITAYMDLTRLTSDDTAVFYCARRGYNSRWSVFDYWGQGTLVTVSS
VL: EIVLTQSPGTLSLSPGERATLSCRASQSVYSNYLAWYQQKRGLAPRLLIYGASSRATGIPDRFSGSGSGTDFTLTISRLEPEDFAVYYCQQHGGSPVTFGGGTKVEIKR
[1]
  Kd: 0.333 nM
  T½: 1.2 h
  koff: 0.000162 s⁻¹
  kon: 486000 M⁻¹ s⁻¹

B7: H1H3411P (antibody, V domains shown)
VH: EVQLVESGGGLVQPGGSLRLSCAASGFTFSRYGMNWVRQAPGKGLEWVSAISGSGGSTYHADSVKGRFTISRDNSKNTLYLQMNSLRAADTAIYFCASYNWNDGVDVWGQGTTVTVS
VL: DIQMTQSPSSVSASIGDRVTITCRASQGISNWLAWYQQKPGKAPKLLIYGASSLQSGVSSRFSGSGSGTDFTLTIISLQPEDFATYYCQQANSFPYTFGQGTKLEIKR
[1]
  Kd: 0.677 nM
  T½: 1.22 h
  koff: 0.000159 s⁻¹
  kon: 235000 M⁻¹ s⁻¹
[4]
  IC50, Vero cell viability (neutralization), Trial 2, 0.1 pM Toxin B; antibody only partially protects (40-50%) at highest concentration: 8 pM

B8: H1H3401P (antibody, V domains shown)
VH: QVQLVESGGGVVQPGRSLRLSCEASGFTFSSYGMHWVRQAPGNGLEWIAVISSDGNNKYYIESVKGRFTMSRDNSKNTLYLQLNSLRTEDTAVYYCATYNWNDDGDGVFDYWGQGTLVTVSS
VL: B7 VL with I15V, A51T, S59P, I76S, A91V, N92K
[1]
  Kd: 0.574 nM
  T½: 0.8 h
  koff: 0.000241 s⁻¹
  kon: 420000 M⁻¹ s⁻¹
